Assay results from patent publication US20260217797A1 (Takeda / Millennium, published 2026).
Changes are numbered by the printed parent chain.

B1: A-23 (antibody, V domains shown)
VH: EVQLVESGGGLVQPGRSLRLSCAASGFTFDDYAMHWVRQAPGKGLEWVSGISWNSGTIGYADSVKGRFIISRDNAKNSLYLQMNSLRGEDMALYYCGKDRKREDPSLGGMDVWGQGTTVTVSS
VL: SYVLTQPPSVSVAPGQTARITCGGNNIGSKSVHWYQQKPGQAPVLVVYDDTDRPSGIPERFSGSNSGNTATLTISRVEAGDEADYYCQVWDSSSDHYVFGTGTKVTVL
B2: A-16 (antibody, V domains shown)
VH: B1 VH with E1Q
VL: B1 VL with V3E, V105L
B3: A-23.1 (antibody, V domains shown)
VH: B1 VH with F29I, S55G
VL: B1 VL with G23L, S93E
B4: A-23.2 (antibody, V domains shown)
VH: B1 VH with I51T, G97V
VL: B1 VL with S92V, H96S
B5: A-23.3 (antibody, V domains shown)
VH: B1 VH with I51T, G97V
VL: B1 VL with H96D
B6: A-20 (antibody, V domains shown)
VH: QVQLVESGGGVVQPGRSLRLSCAASGFTFSNFAMHWVRQAPGKGLEWVAVILYDGINKYYADSVKGRFTISRGNSKNTLSLQMNSLRAEDTAVYYCARAQNYYDRSGTLQLDAFDIWGQGTLVTVSS
VL: AIQMTQSPSSLSASVGDRVTITCRASQGIRNDLGWYQQKPGKAPKLLIYAASSLQSGVPSRFSGSGSGTDFTLTISSLQPEDFATYYCLQDYNYPLTFGGGTKVEIK
B7: A-20.1 (antibody, V domains shown)
VH: B6 VH
VL: B6 VL with R24V, A50E, Q55E
B8: A-1 (antibody, V domains shown)
VH: EVQLVESGGGVVQPGGSLRLSCAASGFAFSTYWMHWVRQAPGKGLVWVSRINGDGSGTNYADSVKGRFTISRDNAKSTLYLQMNSLRTEDTAVYYCTRTAGRGAYDFGRFDPWGQGTLVTVSS
VL: DIVLTQTPLSLPVTPGEPASISCRSSQSLLHSNGYNYLDWYLQKAGQSPQLLVFLGSNRASGVPDRFSGSASGTDFTLKISRVEAEDVGVYYCMQALQIPITFGQGTRLEIK
B9: A-2 (antibody, V domains shown)
VH: EVQLVESGGGLIQPGGSLRLSCAASGFTVSSNYMSWVRQAPGKGLEWVSIIYSGGSTYYADSVKGRFTISRDNSKNTLYLQMNSLRAEDTAVYYCARAPSGEYGDPIYYWGQGTLVTVSS
VL: QSVLTQPPSASASLGASVKLTCTLSSGHSTYTIAWHQQQPEKGPRYLMKLNSDGSHSKGDGIPDRFSGSSSGAERYLTISSLQSEDEADYYCQTWGTGNHWVFGGGTKLTVL
B10: A-3 (antibody, V domains shown)
VH: EVQLLESGPGLVKPSETLSLTCTVSGGSINSRSYYWGWIRQPPGKGLEWIGSIYYSGSTYYNPSLKSRVTISVDTSKNQFSLKLSSVIAADTAVYFCARLEQWELPGGWFDPWGQGTLVTVSS
VL: NFMLTQPHSVSESPGKTVTISCTRSSGSIASNYVQWYQQRPGSAPTTVIYEDNQRPSGVPDRFSGSIDISSNSASLTISGLKTEDEADYSCQSSDSSNVVFGGGTKLTVL
B11: A-4 (antibody, V domains shown)
VH: EVQLVESGGGLIQPGGSLTLSCAASGFTVSSNYMNWVRQAPGKGLEWVSVIYSGGSTYYADSVKGRFTISRDNSKNTLYLQMNSLRAEDTAVYYCAREVYSYFDYWGQGTLVTVSS
VL: DIQLTQSPSFLSASVGDRVTITCRASQGISSYLAWYQQKPGKAPKLLIYAASTLQSGVPSRFSGSGSGTEFTLTISRLQPEDLATYYCQQLNSYPPHTFGQGAKLEIK
B12: A-5 (antibody, V domains shown)
VH: QVQLVESGGGLIQPGESLRLSCAASEFIVSRNYMSWVRQAPGKGLEWVSVIYSGGNTYYADSVKGRFTISRDNSKNTLYLQMNSLRAEDTAVYYCARDLRGPGCFDFWGQGTTVTVSS
VL: DIQVTQSPSSLSASVGDRVTITCQASQDISNFLNWYQQKPGKAPKLLIYDASNLETGVPSRFSASGSGTEFTFTISSLQPEDIATYYCQQYDNLRVTFGGGTKLEIK
B13: A-7 (antibody, V domains shown)
VH: EVQLVESGAEVRKPGASVKVSCKASGYTFTFYYIHWVRQAPGQGLEWMGWISPISGATNYAQTFQGRVTMTRDTSITTAYMELSSLTSDDTAVYYCAREKYYDSSGSSDYWGQGTLVTVSS
VL: QPVLTQPPSVSAAPGQNVTIFCSGSSSNIGNNYVSWYQQLPGPAPKLLIYENNKRPSGIPDRFSGSKSGTSATLGITGLQTGDEADYYCGTWESSLSAPRVFGSGTKLTVL
B14: A-8 (antibody, V domains shown)
VH: EVQLLESGGGLVQPGGSLRLSCAASGFTFSSYAMSWVRQAPGKGLEWVSAISGSGNSTSYADSVKGRFTLSRDNSKNTLYLQMNSLRAEDTAIYYCAKGLGTRSFNWGAFDYWGQGTLVTVSS
VL: DIRVTQSPSSLSASVGDRVTITCRASQGISYSLAWYQQKPGKAPKLLLYAASNLESGVPSRFSGSGSGTDYTLTVSSLQPEDFATYYCQQYYSTPWTFGQGTKVEIK
B15: A-10 (antibody, V domains shown)
VH: QVQLVQSGGGVVQPGRSLRLSCAASGFTFSSYGMHWVRQAPGKGLEWVAVISYDGSNKYYTDSVKGRFTISRDNSKNTLYLQMNSLRAEDTAVYYCAKDLPREVYYDILTGYDNPYYYYGMDVWGQGTTVTVSS
VL: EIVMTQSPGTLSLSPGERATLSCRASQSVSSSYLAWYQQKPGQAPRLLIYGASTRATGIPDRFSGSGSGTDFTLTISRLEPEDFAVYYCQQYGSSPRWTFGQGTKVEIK
B16: A-11 (antibody, V domains shown)
VH: EVQLVESGAEVKKPGSSVMVSCKASGGTFSRYAISWVRQAPGQGLEWMGGIIPVFGIVHYAQKFQGRVTITADKSTSTAYMELSSLRSEDTAAYYCARDRQQQPSPYYYHGMDVWGQGTTVTVSS
VL: DIRLTQSPSSLSASVGDRVTITCQASQDISNYLNWYQQKPGKAPKLLIYDASNLETGVPTRFSGSGSGTDFTFTISSLQPEDIATYYCQQYDNLPLFGGGTKVEIK
B17: A-12 (antibody, V domains shown)
VH: EVQLLESGGGLVQPGGSLRLSCAVSGLTVSSNYMSWVRQAPGKGLEWVSLIYSGGSTYYADSVKGRFTISRDNSKNTLYLQMNSLRAEDTAVYYCARGELGIPYGMDVWGQGTTVTVSS
VL: QSVLTQPPSVSAAPGQKVTISCSGGSSNVGDNFVSWYQQLPGTAPKLLIYDNNRRPSGIPDRFSGSKSGTSATLGITGLQTGDEADYYCGTWDSSLSAGVFGGGTKVTVL
B18: A-13 (antibody, V domains shown)
VH: QVQLVQSGAEVKKPGASVKVSCKASGYTFTDYYMHWVRQAPGQGLEWMGWINPNSGGTNSAQKFQGRVTMTRDTSINTAYMELSRLRSDDTAVYFCARDSHLAMVRGDFEYWGQGTLVTVSS
VL: QSVLTQPASVSGSPGQSITISCTGTSSDVESYNVVSWYQQHPGKAPKLMIYEVSKRPSGVSHRFSGSKSGNTASLTISGLQAEDESDYYCCSYAGNSTWVFGGGTKLTVL
B19: A-14 (antibody, V domains shown)
VH: EVQLVESGGGVVQPGRSLRLSCAASGFTFSTYGMHWVRQAPGKGLEWVAVIWYDGSNKYYADSVKGRFTISRDNSKNTLYLQMNSLRAEDTAVYYCARSVDGDYLEYFQHWGQGTLVTVSS
VL: QPVLTQPRSVSGSPGQSVTISCTGTSSDVGGYNYVSWYQQHPGKAPKLMIYDVSKRPSGVPDRFSGSKSGNTASLTISGLQAEDEADYYCCSYAGGYTNYVFGTGTKLTVL
B20: A-15 (antibody, V domains shown)
VH: QVQLVQSGAEVKKPGASVKVSCKASGYTSSSYYMHWVRQAPGQGPEWMGIINPGGTSTSYAQKFQGRVTMTRDTSTSTVYMELSSLRSEDTAVYYCAIGYCSTTSCRWGDAFDIWGQGTMVTVSS
VL: DIQVTQSPSSLSASVGDRVTITCRASQSISSYLNWYQQKPEKAPNLLIYAASSLQSGVPSRFSGSGSGTDFTLTISSLQPEDFATYYCQQSSTTPPTFGQGTKVEIK
B21: A-19 (antibody, V domains shown)
VH: QVQLVQSGAEVKKPGESLKISCKGSGYSFTSYWIAWVRQMPGKGLEWMGIIYPGDSDTSYSPSFQGQVTISADKSISTAYLQWSSLKASDTAMYYCARGPNKYNWFDTWGQGTLVTVSS
VL: not shown

What was measured:
[1] = molecular target: SARS-CoV-2 Variant B.1.17 N501Y S1-His (SARS-CoV-2, UniProt P0DTC2 16-685); assay: Octet BLI, IgG, monovalent
[2] = molecular target: SARS-CoV-2 Omicron (B.1.529) spike protein (on reporter virus particles) (SARS-CoV-2, UniProt P0DTC2 14-1273); assay: cell-based or functional assay
[3] = molecular target: SARS-CoV-2 P.1 Spike (Gamma) (SARS-CoV-2, UniProt P0DTC2 16-1213); assay: Octet BLI single point, monovalent
[4] = molecular target: SARS-CoV-2 B.1.351 (Beta) RBD (SARS-CoV-2, UniProt P0DTC2 319-541); assay: Octet BLI single point, monovalent
[5] = molecular target: SARS-CoV-2 B.1.1.7 N501Y (Alpha) RBD (SARS-CoV-2, UniProt P0DTC2 319-541); assay: Octet BLI single point, monovalent
SARS-CoV-2 RBD-mFc = SARS-CoV-2 RBD-mFc (SARS-CoV-2, UniProt P0DTC2 319-541); assay: Octet BLI, IgG, avid
[6] = molecular target: SARS-CoV-2 Alpha (B.1.1.7) spike protein (on reporter virus particles) (SARS-CoV-2, UniProt P0DTC2 14-1273); assay: cell-based or functional assay
[7] = molecular target: SARS-CoV-2 Beta (B.1.351) spike protein (on reporter virus particles) (SARS-CoV-2, UniProt P0DTC2 14-1273); assay: cell-based or functional assay

Binder	Kd (SARS-CoV-2 RBD-mFc) [nM]	other results
B1	–	Kd [1]: 1.2 nM
B2	0.081	PsV IC50, Test 1 [2]: 0.19 nM; Kd [3]: 4.83 nM; Kd [4]: 6.05 nM; Kd [5]: 4.62 nM; PsV neutralization IC50 [6]: 0.025 µg/mL; PsV neutralization IC90 [6]: 0.329 µg/mL; PsV neutralization IC50 [7]: 0.103 µg/mL; PsV neutralization IC90 [7]: 0.905 µg/mL
B3	–	Kd [1]: 0.512 nM
B4	–	Kd [1]: 0.242 nM
B5	–	Kd [1]: 0.286 nM
B6	–	Kd [1]: 2.57 nM
B7	–	Kd [1]: 0.604 nM
B8	0.089	–
B9	0.125	–
B10	0.141	–
B11	0.663	–
B12	0.179	–
B13	0.0941	–
B14	0.106	–
B15	0.0931	–
B16	0.173	–
B17	0.151	–
B18	0.0959	–
B19	0.158	–
B20	0.212	–
B21	0.129	–
